The values that follow come from the supplement of paper PMC9112550, “Optimization of the antimicrobial peptide Bac7 by deep mutational scanning” (BMC Biology, 2022).

For this data set, the system named is Escherichia coli TOP10. The data set can be described thus: shrunken log2 fold change of peptide-encoding DNA abundance (4.5 h post-induction vs induction); higher = less antimicrobial activity (less host growth inhibition). To be noted: time post-induction: 4.5 h; library: site-saturation at positions 5, 18, 19, 20.
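Also: peptides expressed intracellularly from a pBAD plasmid library in pooled LB shake-flask culture, induced with 0.3% L-arabinose, DNA abundance read by NGS, three biological replicates, DESeq2 with apeglm shrinkage.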

As for RRIRQRPPRLPRPRPRPLEHPRP, the “shrunken log2 fold change” value is -0.109. For RRIRDRPPRLPRPRPRPNITPRP the value was -0.289.

On to RRIRVRPPRLPRPRPRPAVEPRP, for which the “shrunken log2 fold change” value was 0.565. With RRIRVRPPRLPRPRPRPQWLPRP, the “shrunken log2 fold change” value was found to be 0.188.

For RRIRSRPPRLPRPRPRPIELPRP, the “shrunken log2 fold change” value was -0.122. With RRIRKRPPRLPRPRPRPFPEPRP, the “shrunken log2 fold change” value turned out to be 0.273. For RRIRFRPPRLPRPRPRPHWVPRP the value was -0.523; for RRIRFRPPRLPRPRPRPYFIPRP, -1.12; for RRIRGRPPRLPRPRPRPYPFPRP, -0.164. For RRIRGRPPRLPRPRPRPHLSPRP the value was 0.283. For the sequence RRIRSRPPRLPRPRPRPGRYPRP, the “shrunken log2 fold change” value is -0.344. For RRIRTRPPRLPRPRPRPRDVPRP the value was 0.369; for RRIRQRPPRLPRPRPRPCTCPRP, -0.0638. With RRIRQRPPRLPRPRPRPTCRPRP, the “shrunken log2 fold change” value was 0.133. For RRIRARPPRLPRPRPRPKLAPRP, the “shrunken log2 fold change” value came to 0.555. Consider RRIRWRPPRLPRPRPRPADLPRP, for which the “shrunken log2 fold change” value was 0.331. For the sequence RRIRERPPRLPRPRPRPEMNPRP, the “shrunken log2 fold change” value amounted to 0.0387.

In the case of RRIRGRPPRLPRPRPRPPGNPRP, the “shrunken log2 fold change” value was 0.432.

Regarding RRIRNRPPRLPRPRPRPSEHPRP, the “shrunken log2 fold change” value was -0.159. Consider RRIRDRPPRLPRPRPRPPDMPRP, for which the “shrunken log2 fold change” value was 0.123.

Turning to RRIRLRPPRLPRPRPRPLTFPRP, the “shrunken log2 fold change” value was -0.633. For RRIRHRPPRLPRPRPRPVFNPRP the value was -0.532; for RRIRYRPPRLPRPRPRPMHYPRP, -1.03; for RRIRIRPPRLPRPRPRPQYFPRP, -0.128. On to RRIRARPPRLPRPRPRPDVKPRP, for which the “shrunken log2 fold change” value worked out at 0.395. As to RRIRQRPPRLPRPRPRPHMEPRP, the “shrunken log2 fold change” value was -0.172. For RRIRERPPRLPRPRPRPNIHPRP the value was -0.637; for RRIRCRPPRLPRPRPRPGNYPRP, -0.516; for RRIRARPPRLPRPRPRPERTPRP, 0.143. For RRIRDRPPRLPRPRPRPTNSPRP the value was 0.115. Turning to RRIRDRPPRLPRPRPRPGGYPRP, the “shrunken log2 fold change” value came to 0.101. On to RRIRLRPPRLPRPRPRPPFVPRP, for which the “shrunken log2 fold change” value is 0.00109.

For RRIRERPPRLPRPRPRPSNEPRP, the “shrunken log2 fold change” value was -0.17. Regarding RRIRHRPPRLPRPRPRPRPGPRP, the “shrunken log2 fold change” value was found to be 0.324. As to RRIRMRPPRLPRPRPRPWQRPRP, the “shrunken log2 fold change” value is 0.179. RRIRARPPRLPRPRPRPTAGPRP: the “shrunken log2 fold change” value was determined as 0.902.

With RRIRFRPPRLPRPRPRPTASPRP, the “shrunken log2 fold change” value was 0.384.

In the case of RRIRDRPPRLPRPRPRPGQYPRP, the “shrunken log2 fold change” value was -0.0267. In the case of RRIRERPPRLPRPRPRPMYYPRP, the “shrunken log2 fold change” value was -0.241.

Take RRIRQRPPRLPRPRPRPNHMPRP: the “shrunken log2 fold change” value is -0.422. The result for RRIRSRPPRLPRPRPRPPHCPRP reads 0.105; that for RRIRWRPPRLPRPRPRPWTFPRP, -0.146. With RRIRTRPPRLPRPRPRPKEKPRP, the “shrunken log2 fold change” value was found to be 0.0414. RRIRNRPPRLPRPRPRPIQVPRP: the “shrunken log2 fold change” value was -0.0304. As for RRIRFRPPRLPRPRPRPLPCPRP, the “shrunken log2 fold change” value is -0.199.

For RRIRDRPPRLPRPRPRPTQKPRP, the “shrunken log2 fold change” value amounted to 0.268. With RRIRRRPPRLPRPRPRPSHQPRP, the “shrunken log2 fold change” value stood at 0.0351.

Take RRIRHRPPRLPRPRPRPIDKPRP: the “shrunken log2 fold change” value was 0.0156. The result for RRIRPRPPRLPRPRPRPNNHPRP reads -0.607; that for RRIRGRPPRLPRPRPRPCCCPRP, 0.946. The result for RRIRRRPPRLPRPRPRPGMGPRP reads 0.581. Turning to RRIRQRPPRLPRPRPRPPWNPRP, the “shrunken log2 fold change” value came out at 0.0241.

Turning to RRIRVRPPRLPRPRPRPKCIPRP, the “shrunken log2 fold change” value stood at 0.0104. For the sequence RRIRMRPPRLPRPRPRPRQLPRP, the “shrunken log2 fold change” value was 0.691. Regarding RRIRMRPPRLPRPRPRPGQWPRP, the “shrunken log2 fold change” value was 0.204. RRIRLRPPRLPRPRPRPDCVPRP: the “shrunken log2 fold change” value was 0.0107. RRIRGRPPRLPRPRPRPILVPRP: the “shrunken log2 fold change” value was 0.133. The result for RRIRWRPPRLPRPRPRPKEAPRP reads 0.111; that for RRIRVRPPRLPRPRPRPPTMPRP, 0.0704; that for RRIRFRPPRLPRPRPRPNFVPRP, -0.269. For RRIRRRPPRLPRPRPRPWIWPRP the value was -0.282; for RRIRIRPPRLPRPRPRPMYLPRP, -0.249.

RRIRTRPPRLPRPRPRPRNDPRP: the “shrunken log2 fold change” value was -0.227.

With RRIRARPPRLPRPRPRPPENPRP, the “shrunken log2 fold change” value came to 0.576. Take RRIRRRPPRLPRPRPRPVDAPRP: the “shrunken log2 fold change” value worked out at 0.804. As for RRIRTRPPRLPRPRPRPPDLPRP, the “shrunken log2 fold change” value was determined as 0.243. Take RRIRCRPPRLPRPRPRPHEVPRP: the “shrunken log2 fold change” value came to 0.104. The result for RRIRMRPPRLPRPRPRPWWIPRP reads -0.442; that for RRIRKRPPRLPRPRPRPGSAPRP, 0.843; that for RRIRRRPPRLPRPRPRPCHKPRP, 0.153.

Take RRIRNRPPRLPRPRPRPYQRPRP: the “shrunken log2 fold change” value is -0.0199. For RRIRMRPPRLPRPRPRPFANPRP, the “shrunken log2 fold change” value is -0.0062. RRIRNRPPRLPRPRPRPHADPRP: the “shrunken log2 fold change” value was -0.315. For RRIRDRPPRLPRPRPRPNTFPRP the value was -0.0294; for RRIRVRPPRLPRPRPRPISWPRP, 0.18; for RRIRERPPRLPRPRPRPQVHPRP, -0.445. Consider RRIRMRPPRLPRPRPRPVSFPRP, for which the “shrunken log2 fold change” value is 0.000809. Turning to RRIRARPPRLPRPRPRPMSPPRP, the “shrunken log2 fold change” value was 0.342. As to RRIRQRPPRLPRPRPRPMRVPRP, the “shrunken log2 fold change” value came out at 0.189. On to RRIRKRPPRLPRPRPRPYWNPRP, for which the “shrunken log2 fold change” value was -0.106. On to RRIRCRPPRLPRPRPRPCKQPRP, for which the “shrunken log2 fold change” value is -0.0357. On to RRIRERPPRLPRPRPRPYFPPRP, for which the “shrunken log2 fold change” value was -0.307. The result for RRIRRRPPRLPRPRPRPETWPRP reads 0.234; that for RRIRERPPRLPRPRPRPTLFPRP, 0.0897. As to RRIRQRPPRLPRPRPRPESVPRP, the “shrunken log2 fold change” value was found to be 0.00473. Consider RRIRLRPPRLPRPRPRPEMIPRP, for which the “shrunken log2 fold change” value worked out at 0.0183. The result for RRIRSRPPRLPRPRPRPALEPRP reads 0.407; that for RRIRMRPPRLPRPRPRPYRNPRP, -0.18.

With RRIRYRPPRLPRPRPRPYPNPRP, the “shrunken log2 fold change” value is -0.36.

As for RRIRNRPPRLPRPRPRPCCSPRP, the “shrunken log2 fold change” value was -0.0427. The result for RRIRYRPPRLPRPRPRPFCLPRP reads -1.22. For RRIRLRPPRLPRPRPRPNSSPRP the value was -0.11. The result for RRIRFRPPRLPRPRPRPCASPRP reads -0.315. Regarding RRIRFRPPRLPRPRPRPQSKPRP, the “shrunken log2 fold change” value is 0.379. On to RRIRIRPPRLPRPRPRPMQHPRP, for which the “shrunken log2 fold change” value was -0.289. Consider RRIRNRPPRLPRPRPRPRVLPRP, for which the “shrunken log2 fold change” value is 0.0234.

As to RRIRWRPPRLPRPRPRPQITPRP, the “shrunken log2 fold change” value is -0.216.

RRIRNRPPRLPRPRPRPCFWPRP: the “shrunken log2 fold change” value is -0.0333.

Consider RRIRSRPPRLPRPRPRPTRKPRP, for which the “shrunken log2 fold change” value stood at 0.138. With RRIRIRPPRLPRPRPRPPMDPRP, the “shrunken log2 fold change” value is -0.372. For the sequence RRIRDRPPRLPRPRPRPDMCPRP, the “shrunken log2 fold change” value is -0.0138. For RRIRWRPPRLPRPRPRPNCIPRP, the “shrunken log2 fold change” value is -0.0807. The result for RRIRPRPPRLPRPRPRPEGHPRP reads -0.16; that for RRIRLRPPRLPRPRPRPYHLPRP, -0.213. The result for RRIRCRPPRLPRPRPRPGESPRP reads 0.107; that for RRIRQRPPRLPRPRPRPFYEPRP, -0.413.

Turning to RRIRQRPPRLPRPRPRPKKMPRP, the “shrunken log2 fold change” value was -0.108. The result for RRIRARPPRLPRPRPRPVDKPRP reads 0.363; that for RRIRGRPPRLPRPRPRPMTIPRP, 0.0989; that for RRIRRRPPRLPRPRPRPMHPPRP, 0.552. For RRIRMRPPRLPRPRPRPTTHPRP the value was 0.295. Take RRIRLRPPRLPRPRPRPDHSPRP: the “shrunken log2 fold change” value is -0.0489. On to RRIRARPPRLPRPRPRPHDCPRP, for which the “shrunken log2 fold change” value is -0.16. For RRIRLRPPRLPRPRPRPDACPRP the value was 0.252; for RRIRQRPPRLPRPRPRPEDWPRP, -0.106. Take RRIRGRPPRLPRPRPRPPQDPRP: the “shrunken log2 fold change” value was determined as 0.781. Turning to RRIRERPPRLPRPRPRPTMWPRP, the “shrunken log2 fold change” value is -0.421. The result for RRIRGRPPRLPRPRPRPDGRPRP reads 0.169. With RRIRMRPPRLPRPRPRPPTCPRP, the “shrunken log2 fold change” value was found to be 0.183.

Turning to RRIRYRPPRLPRPRPRPCIKPRP, the “shrunken log2 fold change” value stood at 1.75.

Take RRIRHRPPRLPRPRPRPGFCPRP: the “shrunken log2 fold change” value is -0.0484.

With RRIRFRPPRLPRPRPRPELIPRP, the “shrunken log2 fold change” value is -0.308. The result for RRIRHRPPRLPRPRPRPCSGPRP reads -0.0968. In the case of RRIRFRPPRLPRPRPRPEMFPRP, the “shrunken log2 fold change” value came to 0.099. RRIRVRPPRLPRPRPRPYCGPRP: the “shrunken log2 fold change” value was -0.502.
